# Laboratory results from PMC11997821.
# How the values were obtained:
# [1] = molecular target: BsaXI S subunit (476-residue specificity subunit of R.M.BsaXI) (Bacillus stearothermophilus); experiment: SEC; Superdex75 column in NEB Diluent B; pooled, separately expressed RM and S subunits after chitin, DEAE, heparin and Source columns
# [2] = molecular target: BsaXI S subunit (476-residue specificity subunit of R.M.BsaXI) (Bacillus stearothermophilus); experiment: single-particle EM, 2D classification of particles (negative stain and cryo-EM); DNA-free and DNA-bound BsaXI particles, twice selected
substance,measurement,setting,value
BsaXI RM subunit (916-residue RM fusion subunit of the Type IIB restriction-modification enzyme R.M.BsaXI),stoichiometry N (RM subunits per S subunit),[1],2
same,stoichiometry N (RM subunits per S subunit),[2],2
